Target: T1, human MCM8 (HsMCM8), wild type, N-terminal StrepII tag and TEV site (human, UniProt Q9UJA3 1-840)
T1 sequence (looked up): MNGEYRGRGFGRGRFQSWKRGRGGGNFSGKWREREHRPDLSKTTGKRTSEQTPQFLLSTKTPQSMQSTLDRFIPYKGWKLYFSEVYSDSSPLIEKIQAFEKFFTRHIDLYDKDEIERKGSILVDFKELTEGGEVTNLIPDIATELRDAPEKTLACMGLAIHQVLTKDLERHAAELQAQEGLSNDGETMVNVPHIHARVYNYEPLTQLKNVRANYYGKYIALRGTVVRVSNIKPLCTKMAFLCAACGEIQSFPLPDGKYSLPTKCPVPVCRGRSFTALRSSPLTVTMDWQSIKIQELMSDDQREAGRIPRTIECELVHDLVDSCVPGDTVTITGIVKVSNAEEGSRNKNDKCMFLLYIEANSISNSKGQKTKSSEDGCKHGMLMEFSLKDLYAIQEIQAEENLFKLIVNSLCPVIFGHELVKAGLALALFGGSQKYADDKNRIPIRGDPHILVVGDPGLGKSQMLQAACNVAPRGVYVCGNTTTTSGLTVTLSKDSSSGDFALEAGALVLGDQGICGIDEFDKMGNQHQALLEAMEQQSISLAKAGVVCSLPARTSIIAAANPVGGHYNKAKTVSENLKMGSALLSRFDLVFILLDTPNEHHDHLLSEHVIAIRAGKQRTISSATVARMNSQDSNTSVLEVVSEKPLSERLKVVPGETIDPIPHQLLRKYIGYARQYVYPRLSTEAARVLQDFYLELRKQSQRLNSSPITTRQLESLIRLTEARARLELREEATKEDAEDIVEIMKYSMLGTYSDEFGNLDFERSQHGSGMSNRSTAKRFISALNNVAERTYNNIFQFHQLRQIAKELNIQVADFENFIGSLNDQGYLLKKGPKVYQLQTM
Test: SEC

stoichiometry N: 1
B1: human MCM9 truncated to the first 680 amino acids (MCM9^680), wild type, N-terminal 6xHis tag (domain or fragment)
chain: not shown
